Assay [1] has as its system androgenic alopecia model. The experiment in a line: First experiment: testosterone-induced androgenic alopecia model, hair observed by dermatoscope and scanning electron microscopy. The settings on record: 21 days, proteins 0.21 mg/ml injected on the back once a day, minoxidil 5% external, finasteride 13 μg/mL; for changes in hair observed by dermatoscope: compared with the model group (frizzy hair). It is filed as in vivo, C57BL/6 male mice. As to the method:
Experimental animals: C57BL/6 male mice, 6-7 weeks old, weighing (20±2) g, were provided by Beijing Vital River Laboratory Animal Technology Co. Ltd., with the animal license number of SCXK (Beijing) 2021-0006. They were kept in a 12 h light/12 h dark environment, with free access to food and water. The mice were divided into normal NC group (NC), model group (Model), positive control-minoxidil group (Minoxidil), positive control-finasteride group (Finasteride), experimental group A and experimental group B. The proteins were stored in a −70° C. refrigerator and diluted with physiological saline when used. Experimental group A used rh-CRT-1, with a concentration of 0.21 mg/ml. Experimental group B used rh-CRT-2, with a concentration of 0.21 mg/ml. There were 6 mice in each group.
The main reagents used are as follows: 4% paraformaldehyde (Beijing Solarbio Technology Co., Ltd., China), isoflurane (Rayward, China), testosterone (Shanghai Standard Biotechnology Co., Ltd., China), paraffin sectioner (Thermo, USA), small animal anesthesia machine (Rayward, China), and inverted microscope (Olympus, Japan).
Modeling and drug administration: First, the androgenic alopecia model was established. One day before the modeling, the hair in the central part of the back of the experimental animal was removed with a skin preparation knife, and the prepared area was depilated with a depilatory cream. After 24 hours of depilation, the modeling agent (testosterone, 5.0 mg/mL) was subcutaneously injected into the neck of the mice in groups except the NC group, with a total dose of 0.2 mL/mouse. The mice in the NC group were injected with an equal amount of normal saline. After modeling, the mice were administrated with drugs. The NC group was injected with normal saline once a day, 0.15 mL/mouse each time. The experimental group A, experimental group B and positive control group were injected with modeling agent (testosterone), and administrated with drugs after 2 hours, and the dose of modeling agent was 0.2 mL/mouse. The experimental group A and experimental group B were injected on the back once a day, 0.15 mL/mouse each time. The positive control minoxidil group was applied 5% minoxidil externally, 0.01 mL/mouse, once a day. The positive control finasteride group was applied finasteride at a concentration of 13 μg/mL, 0.2 mL/mouse, once a day.

Assay [2] deals with AGA (androgenic alopecia) model mice. Nature of the assay: Third experiment: hair growth score in DHT-induced AGA model mice. It counts as in vivo, C57BL/6N male mice. The settings on record: Day 17. As to the method:
C57BL/6N male mice, 6-7 weeks old, weighing (18-20) g, 50 mice, with the animal license number of SCXK (Beijing) 2021-0006, were kept in a 12 h light/12 h dark environment, with free access to food and water. Adaptive feeding was performed for about 1 week.
The hair in an area of about 2 cm×3 cm at the border of the spine was shaved using an electric shaver. The depilatory area was applied with 8% sodium sulfide solution. After 90±10 s, the depilatory area on the back was cleaned with cotton balls dipped in water, the residual sodium sulfide was washed away with a washing bottle, and then the mice were wiped dry. Because the hair follicle cycle of mice was in the resting phase at this time, the mouse skin was pink. Mice were randomly divided into groups using Excel software, 10 mice in each group, and the modeling was established after 24 h and the drug was administered for 17 consecutive days. The AGA model was established by injecting dihydrotestosterone into the experimental mice. Dihydrotestosterone (DHT) solution was injected subcutaneously at multiple points every day, 100 μL/mouse (5 mg/kg body weight), and then the drug was administered after 3 h of absorption. CRT-2 and CRT-1 protein solutions were applied externally. 100 μL of protein solution was applied, and 100 μl of minoxidil MNX was applied. The CRT and MNX combination group was first applied with CRT-2 protein solution and then MNX 2 hours later. The solvent formula comprised 50% ethanol, 20% propylene glycol, and 30% pure water.
Scoring was based on the coverage of hair growth: • 0 points: no hair growth, pink in the hair removal area; • 1 point: gray in the hair removal area, hair coverage area E<20%; • 2 points: black in the hair removal area, hair coverage area 20%<E<40%; • 3 points: black in the hair removal area with a little hair growth, hair coverage area 40%<E<60%; • 4 points: black in the hair removal area with some hair growth, hair coverage area 60%<E<80%; • 5 points: black in the hair removal area, hair coverage area 80%<E<100%.
The skin color changes of mice were observed before administration every day. The hair removal time of mice was designated as Day 0, the first day of administration was designated as Day 1, and so on. The hair growth of each mouse was recorded and analyzed on Day 7, Day 9, Day 11, Day 13, Day 15, and Day 17.

Assay [3] relates to AGA (androgen alopecia) model mice. Nature of the assay: Fourth experiment: hair growth score in DHT-induced AGA model mice. It is filed as in vivo, C57BL/6N male mice. The settings on record: Day 17; for hair growth score compared with the Model group: external application 100 μL, CRT 0.35 mg/ml, MNX 5 mg/ml. As to the method:
The experimental animals were the same as in the third experiment.
The AGA model was established in the same manner as the third experiment, and the administration was carried out as follows: The AGA model was established by injecting dihydrotestosterone into the experimental mice. Dihydrotestosterone (DHT) solution was injected subcutaneously at multiple points every day, 100 μL/mouse (5 mg/kg body weight), and then the drug was administered after 3 h of absorption. CRT-3 and CRT-1 protein solutions were applied externally. 100 μL of protein solution was applied, and 100 μl of minoxidil MNX was applied. The solvent formula comprised 50% ethanol, 20% propylene glycol, and 30% pure water.
The scoring criteria and scoring process were the same as those in the third experiment.

Assay [4] concerns mice with androgenic alopecia. Nature of the assay: Second experiment: testosterone hair loss model, hair growth, skin blackness, scanning electron microscopy and hair follicle count. It counts as in vivo, C57BL/6 male mice. The settings on record: for hair growth on the back skin: 17th day, 0.15 mL/mouse once a day; for blackness of the back skin (color tester): Day 17; for blackness of the back skin (color tester) / number of hair follicles (pathological section): P<0.01. As for the experimental part: Experimental animals: C57BL/6 male mice, 6-7 weeks old, weighing (20±2) g, were provided by Beijing Vital River Laboratory Animal Technology Co. Ltd., with the animal license number of SCXK (Beijing) 2021-0006. They were kept in a 12 h light/12 h dark environment, with free access to food and water. The mice were divided into normal control group (normal group, NC), model group (Model), experimental group C (rh-CRT-2, with a concentration of 0.35 mg/ml) including an injection group and an external application group, experimental group D (rh-CRT-3, with a concentration of 0.21 mg/ml) including an injection group and external application group, and positive control-minoxidil group (Minoxidil). The proteins were stored in a −70° C. refrigerator and diluted with physiological saline when used. There were 6 mice in each group.
Modeling and drug administration: First, the hair loss model was established. One day before the modeling, the hair in the center of the back of the experimental animal was removed with a skin preparation knife, and the prepared skin area was depilated with a depilatory cream. After 24 hours of depilation, the normal control group was given 75% ethanol, and other groups were injected with testosterone solution (5 mg/mL) prepared with 75% ethanol, 0.01 mL/mouse. Two hours later, the injection groups of experimental group C and experimental group D were injected on the back, 0.15 mL/mouse, once a day, for 17 consecutive days; the external application groups of experimental group C and experimental group D were applied on the back, 0.15 mL/mouse, once a day, for 17 consecutive days. The normal control group and the model group were externally applied with physiological saline, once a day, 0.15 mL/mouse, for 17 consecutive days. During the drug administration process, except for the normal control group, all other groups were injected with the modeling agent (testosterone), and administrated with drugs after 2 hours. […] After the experiment, the mouse skin was pathologically sectioned as follows: The skin pathological tissue was fixed in 4% paraformaldehyde, trimmed, dehydrated and transparent, and then embedded. The slices were cut with a thickness of 6 μm using a paraffin slicer, and further dewaxed, stained, dehydrated, transparent and sealed. The hair follicles in different areas were observed under an optical microscope, and the number of hair follicles was statistically analyzed.
Scanning electron microscopy observation: At the end of the experiment, hair shafts were randomly plucked from the newly formed hair area on the back of each group of mice. Three mice were selected from each group. The plucked hair shafts were fixed and the changes of hair shafts and hair cuticles were observed by scanning electron microscopy.
Statistical analysis: All data were processed using SPSS 17.0 software. One-way ANOVA was used for comparisons among multiple groups. Data were expressed as mean±standard deviation (x±s). P<0.05 was considered statistically significant, and P>0.05 was not considered statistically significant.

Setting [5] is: external application group, compared with the model group.
Where [6] appears, read: injection group, compared with the model group.

Entries after “also recorded” stand apart in the source; their conditions may differ.

In the case of `CC(C)(C)NC(=O)[C@H]1CC[C@H]2[C@@H]3CC[C@H]4NC(=O)C=C[C@]4(C)[C@H]3CC[C@]12C` [finasteride, reference compound], in assay [1], the “changes in hair observed by dermatoscope” value is “smooth hair” and the “hair cuticles observed by scanning electron microscopy” value was “arranged neatly”.

B1: CRT-1: recombinantly expressed full-length CRT (1-400 aa), amino acid sequence SEQ ID NO: 1, expressed in Pichia pastoris (protein)
chain: EPAVYFKEQFLDGDGWTSRWIESKHKSDFGKFVLSSGKFYGDEEKDKGLQTSQDARFYALSASFEPFSNKGQTLVVQFTVKHEQNIDCGGGYVKLFPNSLDQTDMHGDSEYNIMFGPDICGPGTKKVHVIFNYKGKNVLINKDIRCKDDEFTHLYTLIVRPDNTYEVKIDNSQVESGSLEDDWDFLPPKKIKDPDASKPEDWDERAKIDDPTDSKPEDWDKPEHIPDPDAKKPEDWDEEMDGEWEPPVIQNPEYKGEWKPRQIDNPDYKGTWIHPEIDNPEYSPDPSIYAYDNFGVLGLDLWQVKSGTIFDNFLITNDEAYAEEFGNETWGVTKAAEKQMKDKQDEEQRLKEEEEDKKRKEEEEAEDKEDDEDKDEDEEDEEDKEEDEEEDVPGQAKDEL
For the molecule B1, the “changes in hair observed by dermatoscope” value in assay [1] was “smoother”. In assay [1], the “hair cuticles observed by scanning electron microscopy” value is given as “arranged neatly”. Moreover, the “hair growth score compared with the Model group” value in assay [2] (external application 100 μL, CRT 0.35 mg/ml, MNX 5 mg/ml, P<0.05) was “significantly higher”; in assay [3] (P<0.05) it was “significantly higher”. The “hair growth score compared with MNX” value in assay [2] (external application, P>0.05) was “no significant difference”; in assay [3] (external application, P>0.05), “no significant difference”.

B2: CRT-3: fragment (1-291 aa) of recombinantly expressed CRT, amino acid sequence SEQ ID NO: 12 (protein)
chain: EPAVYFKEQFLDGDGWTSRWIESKHKSDFGKFVLSSGKFYGDEEKDKGLQTSQDARFYALSASFEPFSNKGQTLVVQFTVKHEQNIDCGGGYVKLFPNSLDQTDMHGDSEYNIMFGPDICGPGTKKVHVIFNYKGKNVLINKDIRCKDDEFTHLYTLIVRPDNTYEVKIDNSQVESGSLEDDWDFLPPKKIKDPDASKPEDWDERAKIDDPTDSKPEDWDKPEHIPDPDAKKPEDWDEEMDGEWEPPVIQNPEYKGEWKPRQIDNPDYKGTWIHPEIDNPEYSPDPSIYAY
In the case of B2, the “hair growth on the back skin” value in assay [4] (external application group) is reported as “promoted hair growth”. In addition, in assay [4] (injection group), the “hair growth on the back skin” value is on record as “promoted hair growth”, the “hair cuticles under scanning electron microscopy” value is given as “dense” and the “hair shafts under scanning electron microscopy” value is “thin”. In addition, in assay [4] (setting [5]), the “blackness of the back skin (color tester)” value is given as “significantly increased”, the “hair cuticles under scanning electron microscopy” value was “dense”, the “hair shafts under scanning electron microscopy” value is reported as “became thicker” and the “number of hair follicles (pathological section)” value is listed as “significantly promoted”. For the same molecule, in assay [4] (setting [6]), the “blackness of the back skin (color tester)” value is given as “significantly increased” and the “number of hair follicles (pathological section)” value is reported as “significantly promoted”. Moreover, the “hair growth score compared with the Model group” value in assay [3] (P<0.05) was “significantly higher; also recorded: significantly increased”. Besides, in assay [3] (external application, P<0.05), the “hair growth score compared with the CRT-1 group” value is given as “better than; also recorded: significantly increased”.

Values taken from patent US20250000944A1, “USE OF RECOMBINANT CALRETICULIN IN HAIR GROWTH, HAIR BREEDING, HAIR PROTECTION OR ANTI-HAIR LOSS AND RELATED PRODUCT” (BEIJING YITUBAIHUI BIOTECH CO., LTD, priority 2021, published 2025).
